Test results from publication PMC12945441 (2022).

Target: SARS-CoV-2 Wuhan-Hu-1 receptor-binding domain (SARS-CoV-2 Wuhan-Hu-1)
Assay: ELISA

B1: S2X324 mAb (antibody, V domains shown)
VH: QITLKESGPTLVKPTQTLTLTCTFSGFSVTTSGVGVGWIRQPPGKALEYLALIYWDDDKRYSTSLKSRLTITKDTSKNQVVLTMTNMDPVDTATYYCARHTIPSIFDYWGQGILVTVSS
VL: QPVLTQPASVSGSPGQSITISCTATSSDVGNYNYVSWYQHHPGKAPKLMIYEVSNRPSGVSNRFSGSKSGNTASLTISGLQAEDEADYYCSSYTSSSLLFGGGTKLTVL
**Q.** With B1 as the binder, how does the IC50 read?
**A.** 0.0267 µg/mL
